Results on one molecule are retold here after patent publication US20210095041A1 (SURFACE ONCOLOGY, published 2021).

In assay [1] the target is T1, recombinant cynomolgus monkey CD39 (cynomolgus monkey, UniProt A0A7N9DGH8 38-478).
T1 sequence: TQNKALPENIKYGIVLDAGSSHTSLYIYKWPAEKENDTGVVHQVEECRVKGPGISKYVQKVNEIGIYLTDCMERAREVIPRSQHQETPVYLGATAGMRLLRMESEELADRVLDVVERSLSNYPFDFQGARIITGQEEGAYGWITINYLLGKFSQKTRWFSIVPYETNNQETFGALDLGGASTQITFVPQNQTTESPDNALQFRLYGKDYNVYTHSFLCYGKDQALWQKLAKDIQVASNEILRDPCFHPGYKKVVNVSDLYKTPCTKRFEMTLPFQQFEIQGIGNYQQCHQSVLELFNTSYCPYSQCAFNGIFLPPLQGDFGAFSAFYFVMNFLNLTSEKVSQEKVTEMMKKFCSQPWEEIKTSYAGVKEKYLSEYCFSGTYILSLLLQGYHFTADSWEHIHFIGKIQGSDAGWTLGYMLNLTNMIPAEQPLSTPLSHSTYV
The assay is described as follows: BLI (Octet), clone 22 captured on AHC biosensor, recombinant cynomolgus monkey CD39 as analyte, 1:1 model. The method, then: (§1) In the first configuration, an Anti-Human Immunoglobulin G (IgG) Fragment Crystallizable (Fc) Capture (AHC) biosensor was used first to capture 1 μg/mL of clone 22 as the ligand onto 8 biosensors and subsequently to measure association (600 s) and dissociation (900 s) of 0 to 5 μg/mL of recombinant CD39 from either human, rat, or cynomolgus monkey as the analyte. A second configuration was required for recombinant mouse CD39 binding analysis, as the positive control antibody was a rat IgG and would not bind to the AHC biosensor. Recombinant mouse CD39 binding to clone 22 was analyzed with this second configuration to achieve a direct comparison with the positive control antibody. […] Subsequently, association (600 s) and dissociation (1200 s) of recombinant mouse CD39 (analyte) was measured at a concentration range of 0 to 5.0 μg/mL for both antibodies. […] Under both configurations, association constants (kₐ) and dissociation constants (kd) were determined and KD was calculated for each antibody where binding of the analyte was observed (clone 22 with recombinant CD39 from both human and cynomolgus monkey and Duha59 positive control antibody with recombinant mouse CD39). Kinetic binding parameters were not determined for interactions where binding was not observed (clone 22 with recombinant CD39 from both mouse and rat).

Another assay concerns the target T2, recombinant human CD39 (human, UniProt P49961 38-478).
T2 construct: The clone 1-20 assays used carrier-free human CD39-His lacking transmembrane domains (R&D Systems 4397-EN-010); also called rhCD39
T2 sequence (looked up): T1 sequence with I10V, Y57F, I184V, T193I, V292I, N331K, S354A
Kind of assay: BLI (Octet), clone 22 captured on AHC biosensor, recombinant human CD39 as analyte, 1:1 model. The method, then: as §1
For orientation: In BLI a coated tip is dipped into the sample, and binding shifts an interference pattern.

In the next assay the target is T3, recombinant rat CD39 (rat, UniProt P97687 38-478, limits assumed).
T3 sequence (looked up): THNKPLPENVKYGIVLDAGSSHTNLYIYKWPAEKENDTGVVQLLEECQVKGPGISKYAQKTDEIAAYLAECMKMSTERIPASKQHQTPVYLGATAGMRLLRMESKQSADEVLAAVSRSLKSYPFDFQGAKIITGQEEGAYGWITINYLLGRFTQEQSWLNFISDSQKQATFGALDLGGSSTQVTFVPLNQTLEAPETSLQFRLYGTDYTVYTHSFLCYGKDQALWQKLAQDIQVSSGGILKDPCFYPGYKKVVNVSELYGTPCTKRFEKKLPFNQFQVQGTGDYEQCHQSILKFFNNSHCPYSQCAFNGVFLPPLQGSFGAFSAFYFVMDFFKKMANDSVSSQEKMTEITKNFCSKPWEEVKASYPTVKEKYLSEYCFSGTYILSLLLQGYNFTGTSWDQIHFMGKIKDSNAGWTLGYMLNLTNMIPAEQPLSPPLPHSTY
The assay is described as follows: BLI (Octet), clone 22 captured on AHC biosensor, recombinant rat CD39 as analyte. The procedure: as §1

A further assay concerns the target T4, recombinant mouse CD39 (mouse, UniProt P55772 38-478, limits assumed).
T4 sequence (looked up): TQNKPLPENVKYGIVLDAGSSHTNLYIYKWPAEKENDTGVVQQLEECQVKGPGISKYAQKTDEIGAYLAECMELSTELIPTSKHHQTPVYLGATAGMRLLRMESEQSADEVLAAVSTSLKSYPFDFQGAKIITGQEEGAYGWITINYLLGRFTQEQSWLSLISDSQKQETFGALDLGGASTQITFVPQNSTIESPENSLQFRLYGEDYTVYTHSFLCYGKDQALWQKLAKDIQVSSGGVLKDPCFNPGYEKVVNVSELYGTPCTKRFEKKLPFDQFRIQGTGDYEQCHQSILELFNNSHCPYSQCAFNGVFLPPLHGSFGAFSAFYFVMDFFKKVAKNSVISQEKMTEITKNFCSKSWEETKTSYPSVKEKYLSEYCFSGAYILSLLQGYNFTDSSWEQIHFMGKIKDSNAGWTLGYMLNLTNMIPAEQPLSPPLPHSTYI
Kind of assay: BLI (Octet), clone 22 amine-coupled to AR2G biosensor, recombinant mouse CD39 as analyte. The procedure: as §1

Positions count from the first letter of the chain named. Names may count otherwise.

B1: clone 22 (antibody, human IgG4 S228P, kappa, V domains shown)
VH: QVQLVQSGAEVKKPGSSVKVSCKASGGTFSSEGISWVRQAPGQGLEWMGSILPIFGTANYAQKFQGRVTITADESTSTAYMELSSLRSEDTAVYYCAREAGYYRYRYFDLWGRGTLVTVSS
VL: EIVMTQSPATLSVSPGERATLSCRASQSVSSNLAWYQQKPGQAPRLLIYGASTRATGIPARFSGSGSGTEFTLTISSLQSEDFAVYYCQQHALWPLTFGGGTKVEIKR
notes: Human IgG4 with the S228P mutation and a human kappa light chain; also called anti-CD39 antibody clone 22; antibody clone number 22
What is called Kd is a measure of binding affinity in units of concentration. Regarding B1, the values for the Kd (in assay [1]; with recombinant human CD39) were 0.406 nM and 1.11 nM, respectively. Moreover, the figures for the binding result with recombinant rat CD39 and in the assay with recombinant mouse CD39 were “no binding (tested: 0 to 5 µg/mL recombinant rat CD39)” and “no binding (tested: 0 to 5.0 µg/mL recombinant mouse CD39)”, respectively.
